The results in this text go back to article PMC5058624.

For the assay, the target named is recombinant LukG monomer (TCH1516) (Staphylococcus aureus strain TCH1516 (USA300 CA-MRSA)). The assay can be described thus: BLI. In general terms: In BLI a coated tip is dipped into the sample, and binding shifts an interference pattern.
recombinant LukG monomer (TCH1516) (Staphylococcus aureus strain TCH1516 (USA300 CA-MRSA)), sequence (P21224 30-338 limits assumed): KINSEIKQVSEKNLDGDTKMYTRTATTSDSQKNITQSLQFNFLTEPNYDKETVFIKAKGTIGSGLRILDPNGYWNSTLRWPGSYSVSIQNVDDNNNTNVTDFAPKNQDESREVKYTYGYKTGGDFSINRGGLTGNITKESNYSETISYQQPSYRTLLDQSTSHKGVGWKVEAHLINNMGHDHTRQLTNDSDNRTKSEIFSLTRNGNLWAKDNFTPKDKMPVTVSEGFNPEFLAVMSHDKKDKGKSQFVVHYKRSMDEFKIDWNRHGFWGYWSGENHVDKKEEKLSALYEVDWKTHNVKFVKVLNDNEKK

For “recombinant LukH monomer (TCH1516) (natural protein)”, the stoichiometry N (molar ratio of the 2 monomers) is 1.
